From patent publication US20100068215A1 (published 2010) come the findings set out here.

To fix the notation:
B2: GDF11 (ligand, UniProt O95390 299-407, looked up)
chain: NLGLDCDEHSSESRCCRYPLTVDFEAFGWDWIIAPKRYKANYCSGQCEYMFMQKYPHTHLVQQANPRGSAGPCCTPTKMSPINMLYFNDKQQIIYGKIPGMVVDRCGCS
notes: also called Growth and Differentiation Factor-11; BMP11
B15: ActRIIB(L79 25-131)-hFc (Fc fusion)
chain: ETRECIYYNANWELERTNQSGLERCEGEQDKRLHCYASWRNSSGTIELVKKGCWLDDFNCYDRQECVATEENPQVYFCCCEGNFCNERFTHLPEAGGPEVTYEPPPTGGG
notes: also called ActRIIB(25-131)-hFc; not shown: human Fc domain (hFc)

Where two headings read alike, the source gives them in different places.

For experiment [1], the target named is B2. Nature of the experiment: cell-based or functional assay.
Experiment [2] addresses T1, Activin A (UniProt P08476 311-426).
T1 sequence (looked up): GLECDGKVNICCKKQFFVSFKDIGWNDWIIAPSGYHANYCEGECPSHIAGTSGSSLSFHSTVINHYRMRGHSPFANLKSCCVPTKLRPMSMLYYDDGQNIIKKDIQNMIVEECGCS
The experiment in a line: cell-based or functional assay.

The experiment “ActRIIB(L79 25-131)-hFc” has as its target B15. Nature of the experiment: Biacore, steady-state affinity fit. How it is done: (§1) The affinity of GDF Traps and other ActRIIB-hFc proteins for several ligands was evaluated in vitro with a Biacore™ instrument. Kd values were obtained by steady-state affinity fit due to the very rapid association and dissociation of the complex, which prevented accurate determination of kₒₙ and koff.
(Surface plasmon resonance follows binding to a sensor surface in real time, without labels.)

Another experiment addresses T2, Activin B (UniProt P09529 293-407).
T2 sequence (looked up): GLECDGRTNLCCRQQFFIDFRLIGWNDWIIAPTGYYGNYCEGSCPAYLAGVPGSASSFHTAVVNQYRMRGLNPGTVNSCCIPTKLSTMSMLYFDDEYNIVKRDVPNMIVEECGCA
The experiment in a line: Biacore, steady-state affinity fit. How it is done: as §1

Experiment [3] has as its target B2. The experiment in a line: Biacore, steady-state affinity fit. On the procedure: as §1
Experiment [4] concerns the target T1, Activin A. Nature of the experiment: Biacore, steady-state affinity fit. How it is done: as §1
In experiment [5] the target is B2. Nature of the experiment: Biacore; ActRIIB-Fc captured by anti-hFc antibody, ligand injected. How it is done: (§2) Binding of certain ActRIIB-Fc proteins and GDF Traps to ligands was tested in a BiaCore™ assay.
(§3) The ActRIIB-Fc variants or wild-type protein were captured onto the system using an anti-hFc antibody. Ligands were injected and flowed over the captured receptor proteins.

The target in experiment [6] is T1, Activin A. The description is as above. How it is done:
as §2, §3

The next experiment concerns the target T3, GDF8 (UniProt O14793 267-375).
T3 construct: also called myostatin; Growth and Differentiation Factor-8
T3 sequence (looked up): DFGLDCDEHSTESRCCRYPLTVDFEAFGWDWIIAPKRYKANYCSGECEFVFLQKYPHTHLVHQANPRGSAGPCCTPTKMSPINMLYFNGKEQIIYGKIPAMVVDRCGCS
The experiment is described as above. How it is done:
as §2, §3

In general, Kd refers to the equilibrium constant for the complex coming apart. Low values mean a tighter complex, high ones a looser complex. As a reminder, the koff is a measure of how fast the partners let go of each other. A high value points to fast dissociation. What is called kon is a measure of how fast the partners come together. A lower kon goes with slow association.

B1: ActRIIB(23-131)-hFc (Fc fusion, not shown: a dimerising Fc or GST)
chain: EAETRECIYYNANWELERTNQSGLERCEGEQDKRLHCYASWRNSSGTIELVKKGCWLDDFNCYDRQECVATEENPQVYFCCCEGNFCNERFTHLPEAGGPEVTYEPPPTGGG
Consider B1, for which the figures for the IC50 (ng/mL), A-204 reporter gene assay, conditioned media with GDF11 [1] and in the experiment with Activin A [2] were 60 ng/mL and 43 ng/mL, respectively.

B2 showed a Kd with ActRIIB(L79 25-131)-hFc of 0.031 nM.

B3: ActRIIB(20-132)-hFc (Fc fusion, not shown: a dimerising Fc or GST)
chain: GRGEAETRECIYYNANWELERTNQSGLERCEGEQDKRLHCYASWRNSSGTIELVKKGCWLDDFNCYDRQECVATEENPQVYFCCCEGNFCNERFTHLPEAGGPEVTYEPPPTAGGG
On to B3, for which the IC50 (ng/mL), A-204 reporter gene assay, conditioned media was determined as 87 ng/mL with GDF11 [1] and 32 ng/mL with Activin A [2].

B4: ActRIIB(20-131)-hFc (Fc fusion, not shown: a dimerising Fc or GST)
chain: GRGEAETRECIYYNANWELERTNQSGLERCEGEQDKRLHCYASWRNSSGTIELVKKGCWLDDFNCYDRQECVATEENPQVYFCCCEGNFCNERFTHLPEAGGPEVTYEPPPTGGG
Consider B4, for which the IC50 (ng/mL), A-204 reporter gene assay, conditioned media with GDF11 [1] came out at 183 ng/mL; with GDF11 [1] (record 2), 120 ng/mL; with Activin A [2] it was 201 ng/mL; with Activin A [2] (record 2), 44 ng/mL.

B5: ActRIIB(21-131)-hFc (Fc fusion, not shown: a dimerising Fc or GST)
chain: RGEAETRECIYYNANWELERTNQSGLERCEGEQDKRLHCYASWRNSSGTIELVKKGCWLDDFNCYDRQECVATEENPQVYFCCCEGNFCNERFTHLPEAGGPEVTYEPPPTGGG
For B5, the figures for the IC50 (ng/mL), A-204 reporter gene assay, conditioned media in the experiment with GDF11 [1] and with Activin A [2] were 121 ng/mL and 325 ng/mL, respectively.

B6: ActRIIB(20-134)-hFc (Fc fusion)
chain: GRGEAETRECIYYNANWELERTNQSGLERCEGEQDKRLHCYASWRNSSGTIELVKKGCWLDDFNCYDRQECVATEENPQVYFCCCEGNFCNERFTHLPEAGGPEVTYEPPPTAPTGGGTHTCPPCPAPELLGGPSVFLFPPKPKDTLMISRTPEVTCVVVDVSHEDPEVKFNWYVDGVEVHNAKTKPREEQYNSTYRVVSVLTVLHQDWLNGKEYKCKVSNKALPVPIEKTISKAKGQPREPQVYTLPPSREEMTKNQVSLTCLVKGFYPSDIAVEWESNGQPENNYKTTPPVLDSDGSFFLYSKLTVDKSRWQQGNVFSCSVMHEALHNHYTQKSLSLSPGK
With B6, the “IC50 (ng/mL), A-204 reporter gene assay, conditioned media” value was 45 ng/mL with GDF11 [1] and 22 ng/mL with Activin A [2]. Moreover, the Kd was 0.012 nM with Activin B; 0.036 nM with GDF11 [3]; 0.016 nM with Activin A [4]; 0.0842 nM with GDF11 [5]; 0.0268 nM in the experiment with Activin A [6]; 0.0935 nM with GDF8. In addition, the koff in the experiment with GDF11 [5] was found to be 0.000113 s⁻¹; with Activin A [6] it was 0.000159 s⁻¹; with GDF8, 3.45e-05 s⁻¹. This molecule also had a kon in the experiment with Activin A [6] of 5.94e+06 M⁻¹ s⁻¹.

B7: ActRIIB(R64K 20-129)-hFc (Fc fusion)
chain: GRGEAETRECIYYNANWELERTNQSGLERCEGEQDKRLHCYASWKNSSGTIELVKKGCWLDDFNCYDRQECVATEENPQVYFCCCEGNFCNERFTHLPEAGGPEVTYEPPGGG
notes: not shown: human Fc domain (hFc)
On to B7, for which, in the experiment with Activin A [6], the Kd came out at 0.0841 nM, the koff is 0.000628 s⁻¹ and the kon worked out at 7.46e+06 M⁻¹ s⁻¹. In addition, in the experiment with GDF8, the Kd is 2.15 nM and the koff is 0.000209 s⁻¹.

B8: ActRIIB(A24N 20-134)-hFc (Fc fusion)
chain: GRGENETRECIYYNANWELERTNQSGLERCEGEQDKRLHCYASWRNSSGTIELVKKGCWLDDFNCYDRQECVATEENPQVYFCCCEGNFCNERFTHLPEAGGPEVTYEPPPTAPTGGG
notes: also called the A24N variant; not shown: human Fc domain (hFc)
Take B8: in the experiment with GDF11 [5], the affinity, expressed as Kd, was 0.0519 nM and the koff was determined as 6.35e-05 s⁻¹. Besides, in the experiment with Activin A [6], the Kd came to 0.104 nM, the koff came out at 0.000346 s⁻¹ and the kon stood at 3.34e+06 M⁻¹ s⁻¹.

B9: ActRIIB(K74A 20-134)-hFc (Fc fusion)
chain: GRGEAETRECIYYNANWELERTNQSGLERCEGEQDKRLHCYASWRNSSGTIELVAKGCWLDDFNCYDRQECVATEENPQVYFCCCEGNFCNERFTHLPEAGGPEVTYEPPPTAPTGGG
notes: as for B7
In the experiment with GDF8, B9 had a Kd of 0.0718 nM and a koff of 2.03e-05 s⁻¹.

B10: ActRIIB(R64K 20-134)-hFc (Fc fusion)
chain: GRGEAETRECIYYNANWELERTNQSGLERCEGEQDKRLHCYASWKNSSGTIELVKKGCWLDDFNCYDRQECVATEENPQVYFCCCEGNFCNERFTHLPEAGGPEVTYEPPPTAPTGGG
notes: as for B7
As for B10, in the experiment with GDF11 [5], the Kd came to 0.0356 nM and the koff was found to be 2.41e-05 s⁻¹. In the experiment with Activin A [6], this molecule yielded an equilibrium dissociation constant (Kd) of 0.0476 nM, a koff of 0.000325 s⁻¹ and a kon of 6.82e+06 M⁻¹ s⁻¹. Moreover, in the experiment with GDF8, the Kd is 0.21 nM and the koff turned out to be 4.71e-05 s⁻¹.

B11: ActRIIB(P129S, P130R 20-134)-hFc (Fc fusion)
chain: GRGEAETRECIYYNANWELERTNQSGLERCEGEQDKRLHCYASWRNSSGTIELVKKGCWLDDFNCYDRQECVATEENPQVYFCCCEGNFCNERFTHLPEAGGPEVTYEPSRTAPTGGG
notes: kept as two molecules; not shown: human Fc domain (hFc)
In the case of B11, in the experiment with Activin A [6], binding was put at a Kd of 0.0831 nM, the koff is 0.000417 s⁻¹ and the kon stood at 5.02e+06 M⁻¹ s⁻¹. In the experiment with GDF8, this molecule showed an equilibrium dissociation constant (Kd) of 1.67 nM and a koff of 0.00018 s⁻¹.

B12: ActRIIB(20-128)-hFc (Fc fusion, not shown: a dimerising Fc or GST)
chain: GRGEAETRECIYYNANWELERTNQSGLERCEGEQDKRLHCYASWRNSSGTIELVKKGCWLDDFNCYDRQECVATEENPQVYFCCCEGNFCNERFTHLPEAGGPEVTYEPGGG
B12: the IC50 (ng/mL), A-204 reporter gene assay, conditioned media amounted to 130 ng/mL with GDF11 [1] and 158 ng/mL in the experiment with Activin A [2].

B13: ActRIIB(22-131)-hFc (Fc fusion, not shown: a dimerising Fc or GST)
chain: GEAETRECIYYNANWELERTNQSGLERCEGEQDKRLHCYASWRNSSGTIELVKKGCWLDDFNCYDRQECVATEENPQVYFCCCEGNFCNERFTHLPEAGGPEVTYEPPPTGGG
Turning to B13, the IC50 (ng/mL), A-204 reporter gene assay, conditioned media turned out to be 71 ng/mL in the experiment with GDF11 [1] and 100 ng/mL with Activin A [2].

B14: ActRIIB(24-131)-hFc (Fc fusion, not shown: a dimerising Fc or GST)
chain: AETRECIYYNANWELERTNQSGLERCEGEQDKRLHCYASWRNSSGTIELVKKGCWLDDFNCYDRQECVATEENPQVYFCCCEGNFCNERFTHLPEAGGPEVTYEPPPTGGG
On to B14, for which the IC50 (ng/mL), A-204 reporter gene assay, conditioned media in the experiment with GDF11 [1] came to 69 ng/mL; with Activin A [2] it was 105 ng/mL.

Regarding B15, the dissociation constant Kd with Activin B worked out at 0.012 nM; with Activin A [4], 0.018 nM.
